Experimental data published in publication PMC10572367, “The Generation of a Nanobody-Based ELISA for Human Microsomal Epoxide Hydrolase” (International Journal of Molecular Sciences, 2023).

How the values were obtained:
[1] = biological target: T1, recombinant human microsomal epoxide hydrolase (Homo sapiens, UniProt P07099, final four amino acid residues of mEH (LERQ) were mutated to the Factor Xa …); experiment: ELISA; phage ELISA of randomly picked single phage clones against recombinant human mEH; conditions: one partner purified
T1 construct: human microsomal epoxide hydrolase (mEH), Uniprot P07099; Extracted from microsomes with beta-DDM; also called mEH; human mEH; source: Tni (Trichoplusia ni) insect cells, baculovirus, purified (Ni-NTA, size exclusion chromatography)

[2] = biological target: T1, recombinant human microsomal epoxide …; experiment: ELISA; direct ELISA testing the titer of the candidate nanobodies; format not described; conditions: both partners purified
[3] = biological target: T2, human mEH in human tissue whole extracts (Homo sapiens, endogenous, UniProt P07099); experiment: ELISA; sandwich ELISAs of formats A, B and C (mAb capture, native or biotinylated MQ30 detection) on human whole tissue extracts diluted 10^3, 10^4 and 10^5-fold; conditions: one partner purified
T2 construct: human microsomal epoxide hydrolase, endogenous in human tissue extracts (adrenal, esophagus, liver, pancreas, ovary, heart, hippocampus); also called bioactive mEH in the crude extracts; source: endogenous, whole tissue extracts of human commercial tissue samples (BioChain Institute)

human EH-3 (human) = biological target: T3, human EH-3 (human) (UniProt Q9H6B9); experiment: ELISA; cross-reactivity in the format A sandwich (mAb capture, MQ30 detection): epoxide hydrolases spiked at 1000 ng mL^-1 in PBS, read against the human mEH standard curve; a signal needs capture by the mAb as well as MQ30
T3 sequence: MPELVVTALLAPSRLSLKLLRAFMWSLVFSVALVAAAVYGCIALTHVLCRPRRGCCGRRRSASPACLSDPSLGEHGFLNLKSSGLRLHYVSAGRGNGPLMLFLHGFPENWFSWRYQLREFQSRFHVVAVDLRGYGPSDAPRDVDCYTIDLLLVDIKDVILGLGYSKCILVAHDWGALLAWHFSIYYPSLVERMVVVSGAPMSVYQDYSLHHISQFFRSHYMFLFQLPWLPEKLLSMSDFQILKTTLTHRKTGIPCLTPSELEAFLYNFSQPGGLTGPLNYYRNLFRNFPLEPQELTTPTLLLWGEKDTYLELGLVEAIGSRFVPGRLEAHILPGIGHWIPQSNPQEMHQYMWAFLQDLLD

human EH-4 (human) = biological target: T4, human EH-4 (human) (UniProt Q8IUS5); experiment: as above
T4 sequence: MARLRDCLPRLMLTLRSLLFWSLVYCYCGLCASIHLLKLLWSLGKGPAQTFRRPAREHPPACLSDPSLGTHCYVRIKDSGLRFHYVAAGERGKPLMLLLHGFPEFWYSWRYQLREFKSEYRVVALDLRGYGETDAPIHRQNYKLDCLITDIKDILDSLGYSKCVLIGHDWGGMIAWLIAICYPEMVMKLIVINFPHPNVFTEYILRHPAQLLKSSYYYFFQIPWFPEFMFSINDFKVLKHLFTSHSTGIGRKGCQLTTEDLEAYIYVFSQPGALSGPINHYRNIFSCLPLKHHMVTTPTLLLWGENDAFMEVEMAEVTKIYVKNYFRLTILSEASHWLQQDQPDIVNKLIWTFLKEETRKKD

human sEH (human) = biological target: T5, human sEH (human) (UniProt P34913); experiment: as above
T5 sequence: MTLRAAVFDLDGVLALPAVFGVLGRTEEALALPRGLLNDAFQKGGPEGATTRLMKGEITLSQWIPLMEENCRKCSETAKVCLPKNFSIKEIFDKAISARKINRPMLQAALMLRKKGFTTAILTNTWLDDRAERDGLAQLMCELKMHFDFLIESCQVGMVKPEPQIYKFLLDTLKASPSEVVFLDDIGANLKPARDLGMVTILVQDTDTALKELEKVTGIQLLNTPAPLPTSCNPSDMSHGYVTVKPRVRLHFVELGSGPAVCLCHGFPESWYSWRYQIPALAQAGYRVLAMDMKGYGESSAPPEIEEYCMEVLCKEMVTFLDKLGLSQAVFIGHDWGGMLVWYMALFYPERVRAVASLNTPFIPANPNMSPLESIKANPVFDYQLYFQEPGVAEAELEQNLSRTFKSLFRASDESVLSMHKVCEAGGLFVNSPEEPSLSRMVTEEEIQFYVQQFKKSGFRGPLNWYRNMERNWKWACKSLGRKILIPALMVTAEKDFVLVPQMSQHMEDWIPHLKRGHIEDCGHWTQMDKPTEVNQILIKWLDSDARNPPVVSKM

rat mEH (rat) = biological target: T6, rat mEH (rat) (UniProt P07687); experiment: as above
T6 sequence: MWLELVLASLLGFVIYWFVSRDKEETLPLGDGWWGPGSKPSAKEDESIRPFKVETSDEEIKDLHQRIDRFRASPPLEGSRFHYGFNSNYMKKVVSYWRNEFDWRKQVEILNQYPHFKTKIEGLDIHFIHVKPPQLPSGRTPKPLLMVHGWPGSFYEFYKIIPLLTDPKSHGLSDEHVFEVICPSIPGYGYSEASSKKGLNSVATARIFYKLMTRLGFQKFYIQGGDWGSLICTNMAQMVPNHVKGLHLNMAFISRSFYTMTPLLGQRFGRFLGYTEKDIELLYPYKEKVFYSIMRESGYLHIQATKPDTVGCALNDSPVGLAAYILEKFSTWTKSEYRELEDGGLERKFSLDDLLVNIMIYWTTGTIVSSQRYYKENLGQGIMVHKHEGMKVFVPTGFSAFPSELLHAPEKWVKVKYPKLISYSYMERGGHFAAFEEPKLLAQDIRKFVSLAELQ

[4] = biological target: T1, recombinant human microsomal epoxide …; experiment: far-Western, overlay or dot blot; Western blot: recombinant human mEH denatured, run on Mini-protean TGX gels, transferred to PVDF; nanobody as detection antibody (HRP-labelled anti-HA as tracer, or MQM8-HRP); conditions: both partners purified

T1 sequence (P07099 other isoform, or with tags, fused parts or gaps with the stated changes): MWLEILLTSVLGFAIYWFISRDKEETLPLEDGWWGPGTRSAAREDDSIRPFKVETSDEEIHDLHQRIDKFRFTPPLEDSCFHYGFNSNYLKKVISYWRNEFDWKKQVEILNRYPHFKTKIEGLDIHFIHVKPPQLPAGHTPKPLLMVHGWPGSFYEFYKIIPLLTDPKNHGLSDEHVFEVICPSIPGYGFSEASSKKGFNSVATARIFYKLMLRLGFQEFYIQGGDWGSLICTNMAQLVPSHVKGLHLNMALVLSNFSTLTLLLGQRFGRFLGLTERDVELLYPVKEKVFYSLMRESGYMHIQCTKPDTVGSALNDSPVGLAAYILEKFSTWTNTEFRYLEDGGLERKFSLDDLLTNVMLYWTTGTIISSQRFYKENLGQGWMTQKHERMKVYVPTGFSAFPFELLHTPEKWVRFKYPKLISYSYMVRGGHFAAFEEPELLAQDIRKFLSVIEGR
T2 sequence (P07099 whole entry): as the sequence (P07099 other isoform, or with tags, fused parts or gaps with the stated changes) above, with I452L, G454R, R455Q counted along it

B1: nanobody MQ4 (VHH)
VHH: QVQLVESGGGLAQPGGSLRLSCDASGSPYIINDMGWYRQAPGKQRELVASITRRGITNVADSVKGRFTISRDNAKMTVYLQMNSLKSEDTALYNCHAQPAVTPRMDYWGQGTQVTVSS
notes: Selected from a phage library of an immunised llama; In the phage ELISA the clone stood on phage, not as the soluble purified VHH; also called VHH MQ4; source: E. coli TOP10F', purified (B-PER extraction, Ni-NTA); in the phage ELISA as a phage clone
binding result [1]: binds

B2: nanobody MQ17 (VHH)
VHH: QLQLVESGGGLVQPGGSLTLSCAASGSIFTIDALGWFRQAPGKEREFVAALPWRDGVPYYAASNKGRFSVSKDSAKNTVFKNTVFLQVNNLEPEDTAVYSCAARPWYATSTYSDSDSYGYWGQGTQVTVSS
notes: Selected from a phage library of an immunised llama; In the phage ELISA the clone stood on phage, not as the soluble purified VHH; also called VHH MQ17; source: E. coli TOP10F', purified (B-PER extraction, Ni-NTA); in the phage ELISA as a phage clone
binding result [2]: binds

B3: nanobody MQ30 (VHH)
VHH: QVQLVESGGGVVQPGGSLRLSCVVSGSRFSLNFMGWFRQAPGKEREFVAALIWRGDVAHYAASNKGRFTVSKESAKNTVYLQLNSLEPEDTAVYSCAAQPWYSRDTYSDSDSYKYWGQGTQVTVSS
notes: Selected from a phage library of an immunised llama; In the phage ELISA the clone stood on phage, not as the soluble purified VHH; also called VHH MQ30; native VHH MQ30; source: E. coli TOP10F', purified (B-PER extraction, Ni-NTA); in the phage ELISA as a phage clone
binding result [3]: binds | cross-reactivity (human EH-3 (human)): < 0.01% | cross-reactivity (human EH-4 (human)): < 0.01% | cross-reactivity (human sEH (human)): < 0.01% | cross-reactivity (rat mEH (rat)): 0.11% | measured concentration at 1000 ng mL^-1 spiked (rat mEH (rat)): 1.05 ng/mL

B4: biotinylated VHH MQ30 (VHH)
VHH: QVQLVESGGGVVQPGGSLRLSCVVSGSRFSLNFMGWFRQAPGKEREFVAALIWRGDVAHYAASNKGRFTVSKESAKNTVYLQLNSLEPEDTAVYSCAAQPWYSRDTYSDSDSYKYWGQGTQVTVSS
notes: as the VHH of m4 (MQ30); also called biotinylated MQ30; source: E. coli TOP10F', purified (Ni-NTA), then biotinylated
binding result [3]: binds

B5: nanobody MQM8 (VHH)
VHH: QLQLVESGGGFVPPGGSLRLSCAASGFIFRFVGMGRYRQAPGKQRELVASITGNDYRNYADSVKGRFTISRDNYKNTVDLQMNSLKPEDTAVYYCNRVPLDFGSWGQGTQVTVSS
notes: Selected from a phage library of an immunised llama; In the phage ELISA the clone stood on phage, not as the soluble purified VHH; also called VHH MQM8; source: E. coli TOP10F', purified (B-PER extraction, Ni-NTA); in the phage ELISA as a phage clone
binding result [2]: binds

B6: MQM8-HRP (VHH)
VHH: QLQLVESGGGFVPPGGSLRLSCAASGFIFRFVGMGRYRQAPGKQRELVASITGNDYRNYADSVKGRFTISRDNYKNTVDLQMNSLKPEDTAVYYCNRVPLDFGSWGQGTQVTVSS
notes: as the VHH of m5 (MQM8); Named only as 'MQM8-HRP as a signal tracer'; also called HRP-labelled VHH MQM8
binding result [4]: binds
